Target: T1, 35S-methionine-luciferase (in vitro translated from the Promega luciferase control plasmid) (UniProt P08659 1-550 = luciferase, 35S-methionine label)
T1 construct: Control protein in the pull-down; also called control protein luciferase
Assay: GST pull-down of 35S-labelled protein on glutathione-Sepharose 4B beads, SDS/PAGE and autoradiography
Method: The CaM kinase II domain of mCASK-C cDNA was amplified by PCR and cloned in frame into SmaI of pGEX-2T and transformed into E. coli BL21 cells. […] For pull-down assays, radiolabeled Acheron and luciferase was produced from pET-25b(+)-Acheron and luciferase controlled plasmid (Promega) by using in vitro TNT Quick Coupled Transcription/Translation System (Promega) with ³⁵S-methionine as the sole source of methionine, following the manufacture's instructions. 5 μl of ³⁵S-methionine-Acheron and ³⁵S-methionine-luciferase were incubated with equal amount of GST or GST-mCASK-C (CaM kinase II domain) bound to glutathione-Sepharose 4B beads, respectively, under constant rocking for 45 minutes in 2 ml of NETN binding buffer. ³⁵S-methionine-luciferase and GST were used as the controls in the binding assays. The Sepharose beads were pelleted and washed extensively with the binding buffer and were analyzed by SDS/PAGE and autoradiography.
To further confirm the physical interaction between Acheron and mCASK-C, an in vitro protein binding assay was performed. […] The beads were pelleted and washed extensively and the bound protein complex was resolved by SDS/PAGE and detected by autoradiography.

T1 sequence (P08659 whole entry): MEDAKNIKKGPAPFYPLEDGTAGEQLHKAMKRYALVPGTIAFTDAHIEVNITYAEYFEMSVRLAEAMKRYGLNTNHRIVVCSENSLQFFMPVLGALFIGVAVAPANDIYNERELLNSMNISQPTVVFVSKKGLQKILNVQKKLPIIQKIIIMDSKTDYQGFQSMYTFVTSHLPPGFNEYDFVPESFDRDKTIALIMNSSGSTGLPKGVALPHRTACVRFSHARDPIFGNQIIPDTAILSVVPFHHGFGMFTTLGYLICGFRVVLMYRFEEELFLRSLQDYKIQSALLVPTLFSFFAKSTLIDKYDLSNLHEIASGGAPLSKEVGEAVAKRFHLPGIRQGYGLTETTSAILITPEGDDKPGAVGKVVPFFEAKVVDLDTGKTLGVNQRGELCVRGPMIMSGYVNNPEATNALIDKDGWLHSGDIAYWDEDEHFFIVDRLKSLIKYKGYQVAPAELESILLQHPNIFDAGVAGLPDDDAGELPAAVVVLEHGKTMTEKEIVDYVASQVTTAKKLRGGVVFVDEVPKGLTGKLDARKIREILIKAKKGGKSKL

B1: GST-mCASK-C (CaM kinase II domain from amino acid 1 to 339) (other)
chain: MADDDVLFEDVYELCEVIGKGPFSVVRRCINRETGQQFAVKIVDVAKFTSSPGLSTEDLKREASICHMLKHPHIVELLETYSSDGMLYMVFEFMDGADLCFEIVKRADAGFVYSEAVASHYMRQILEALRYCHDNNIIHRDVKPHCVLLASKENSAPVKLGGFGVAIQLGESGLVAGGRVGTPHFMAPEVVKREPYGKPVDVWGCGVILFILLSGCLPFYGTKERLFEGIIKGKYKMNPRQWSHISESAKDLVRRMLMLDPAERITVYEALNHPWLKERDRYAYKIHLPETVEQLRKFNARRKLKGAVLAAVSSHKFNSFYGDPPEELPDFSEDPTSSG
notes: Expressed in E. coli BL21 and immobilised on glutathione-Sepharose 4B beads; not shown: glutathione S-transferase from vector pGEX-2T
Question: Does B1 bind?
Answer: no binding

— patent US20050002917A1 (UNIVERSITY OF MASSACHUSETTS, published 2005)
